Reference: paper PMC11446229

Target: T1, CyaY, the frataxin homolog of Escherichia coli (E. coli), P27838
T1 chain: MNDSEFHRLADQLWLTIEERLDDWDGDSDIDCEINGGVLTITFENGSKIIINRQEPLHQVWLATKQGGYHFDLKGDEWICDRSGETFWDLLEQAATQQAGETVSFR
Test: native MS; CyaY above 35 uM in the titration of SufSE; charge states of CyaY multimers (Fig. S4)
Details: remark: other sources report otherwise

B1: CyaY, the frataxin homolog of Escherichia coli, P27838 1-106 (natural protein)
chain: MNDSEFHRLADQLWLTIEERLDDWDGDSDIDCEINGGVLTITFENGSKIIINRQEPLHQVWLATKQGGYHFDLKGDEWICDRSGETFWDLLEQAATQQAGETVSFR
In the case of B1, the stoichiometry N is reported as 2 to 3.
